The source of these data is patent publication US20110136737A1.

The chains are these.
T1: GIP receptor (GIP RBA, RIN), P43219
T1 chain: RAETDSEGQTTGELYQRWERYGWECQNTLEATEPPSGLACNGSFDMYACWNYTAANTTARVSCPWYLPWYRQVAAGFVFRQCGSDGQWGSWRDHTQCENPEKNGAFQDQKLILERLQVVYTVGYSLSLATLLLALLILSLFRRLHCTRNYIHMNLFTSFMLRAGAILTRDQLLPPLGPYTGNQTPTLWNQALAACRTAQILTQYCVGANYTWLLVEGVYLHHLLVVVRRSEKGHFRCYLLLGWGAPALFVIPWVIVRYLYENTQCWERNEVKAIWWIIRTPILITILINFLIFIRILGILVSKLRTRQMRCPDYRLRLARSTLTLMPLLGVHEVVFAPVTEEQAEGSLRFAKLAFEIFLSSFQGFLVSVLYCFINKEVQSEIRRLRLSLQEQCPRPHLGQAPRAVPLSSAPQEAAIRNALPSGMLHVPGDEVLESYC

T2: human GIP receptor (human), P48546
T2 chain: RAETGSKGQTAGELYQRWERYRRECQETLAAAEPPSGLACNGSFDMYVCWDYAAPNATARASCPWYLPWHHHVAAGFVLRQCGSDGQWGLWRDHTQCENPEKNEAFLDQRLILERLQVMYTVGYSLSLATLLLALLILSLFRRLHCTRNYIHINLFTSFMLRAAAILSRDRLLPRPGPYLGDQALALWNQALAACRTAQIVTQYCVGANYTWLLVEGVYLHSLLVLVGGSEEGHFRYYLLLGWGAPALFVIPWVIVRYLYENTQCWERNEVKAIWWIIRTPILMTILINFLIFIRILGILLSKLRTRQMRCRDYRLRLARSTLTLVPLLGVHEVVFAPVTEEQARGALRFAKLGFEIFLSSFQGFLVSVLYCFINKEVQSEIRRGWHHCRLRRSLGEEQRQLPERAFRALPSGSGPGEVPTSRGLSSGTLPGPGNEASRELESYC

The target of one test is T1, GIP receptor (GIP RBA, RIN), P43219. In words: cell-based or functional assay.
As to GYAEGTFISDYSIAMDKIHQQDFVNWLLAQKPSSGAPPPS (modifications not checked) [0601GIP4178], the Cyclase stood at 36.2.

GYAEGTFISDYSIAMDKIRQQDFVNWLLAQKPSSGAPPPS (modifications not checked) [0601GIP4293] came in with a Cyclase of 20.

In the next test the target is T2, human GIP receptor (human), P48546. In words: 125I-GIP displacement by 10 nM analog, HEK-GIPR membranes.
For the molecule YAEGFISDYSIAMDKIHQQDFVNWLLAQKPSPKKIRYS (modifications not checked) [0601GIP4820], the % Inh at 10 nM amounted to 46%.

In the case of YAEGTFISDYSIAMDKIHQQDFVNWLLAQKPKGKGKS (modifications not checked) [0601GIP4700], the % Inh at 10 nM came out at 86.6%.

For YAEGTFISDYSIAMDKIHQQDFVNWLLAQKPSKEIIH (modifications not checked) [0601GIP4710], the % Inh at 10 nM worked out at 79.2%.

YAEGTFISDYSIAMDKIHQQDFVNWLLAQKPSKEIIS (modifications not checked) [0601GIP4765]: the % Inh at 10 nM was 67%.

YAEGTFISDYSIALDKIHQQDFVNWLLAQKPKKIRYS (modifications not checked) [0601GIP4807]: the % Inh at 10 nM amounted to 96.1%.

Molecule YAEGTFISDYSIALDKIRQQEFVNWLLAQKPKKIRYS (modifications not checked) [0601GIP4539] displayed a % Inh at 10 nM of 98.7%.

In turn, HGEGTFISDYSIALDKIAQQEFVNWLLAQKPKKIRYS (modifications not checked) [0601GIP4841] registered a % Inh at 10 nM of 56.6%.

As for YAEGTFISDYSIAMDKIHQQDFVNWLLAQKPKAIRYS (modifications not checked) [0601GIP4816], the % Inh at 10 nM was 87.3%.

YAEGTFISDYSIAMDKIHQQDFVNWLEAQKPKKIRYS (modifications not checked) [0601GIP4771]: the % Inh at 10 nM was determined as 17.8%.

In the case of YAEGTFISDYSIAMDKIHQQDFVPWLLAQKPKKIRYS (modifications not checked) [0601GIP4768], the % Inh at 10 nM came out at 17.9%.

YAEGTFISDYSIAMDKIHQQDFVNELLAQKPKKIRYS (modifications not checked) [0601GIP4769] gave a % Inh at 10 nM of 42.8%.

Molecule HGEGTFISDYSIALDKIRQQEFVNWLLAQKPKKIRYS (modifications not checked) [0601GIP4842] came in with a % Inh at 10 nM of 40.8%.

The molecule YSEGTFISDYSIAMDKIHQQDFVNWLLAQKPKKIRYS (modifications not checked) [0601GIP4538] had a % Inh at 10 nM of 94.2%.

In the case of YAEGTFISDYSIALDKIAQQEFVNWLLAQKPKKIRYS (modifications not checked) [0601GIP4631], the % Inh at 10 nM is 79%.

For the molecule YAEGTFISDYSIAMDKIHQQDFVNWLLAQKPKKIRYA (modifications not checked) [0601GIP4819], the % Inh at 10 nM came to 80.4%.

In turn, YAEGTFISDYSIAMDKIHQQDFVNWLLAQKPKKIRYS (modifications not checked) [0601GIP4762] registered a % Inh at 10 nM of 79.1%.

For YAEGTFISDYSIAMDKIHQQDFVNWLLAQKPKSARPS (modifications not checked) [0601GIP4821], the % Inh at 10 nM was found to be 93.5%.

YAEGTFISDYSIAMDKIHQQDFVNWLLAQKPAKIRYS (modifications not checked) [0601GIP4815] came in with a % Inh at 10 nM of 89%.

Take YAEGTFISDYSIAMDKIHQQDFVNWLLAQKPKKLKPS (modifications not checked) [0601GIP4822]: the % Inh at 10 nM was found to be 95.4%.

Turning to YAEGTFISDYSIAMDKIHQQDFVNPLLAQKPKKIRYS (modifications not checked) [0601GIP4770], the % Inh at 10 nM was 10.8%.

HGEGTFISDYSIAMDKIHQQDFVNWLLAQKPKKIRYS (modifications not checked) [0601GIP4839] came in with a % Inh at 10 nM of 23.9%.

Consider YAEGTFISDYSIALDKIRQQDFVEWLLAQKPKKIRYS (modifications not checked) [0601GIP4540], for which the % Inh at 10 nM came out at 92.2%.

The molecule YAEGTFISDYSIAMDKIHQQDFVNWLLAQKAKKIRYS (modifications not checked) [0601GIP4814] had a % Inh at 10 nM of 88%.

Regarding YADGTFISDYSIAMDKIHQQDFVNWLLAQKPKKIRYS (modifications not checked) [0601GIP4390], the % Inh at 10 nM turned out to be 90.3%.

For the molecule YSDGTFISDYSIAMDKIHQQDFVNWLLAQKPKKIRYS (modifications not checked) [0601GIP4386], the % Inh at 10 nM worked out at 93.6%.

In turn, HAEGTFISDYSIAMDKIHQQDFVNWLLAQKPKKIRYS (modifications not checked) [0601GIP4840] gave a % Inh at 10 nM of 44.1%.

YAEGTFISDYSIAMDKIHQQDFVNWLLAQKPKKIRYS (modifications not checked) [0601GIP4233] displayed a % Inh at 10 nM of 89%.

Consider YAEGTFISDYSIAMDKIHQQDFVNWLLAQKPSPKKIRYS (modifications not checked) [0601GIP4823], for which the % Inh at 10 nM was found to be 94.1%.

With YAEGTFISDYSIAMDKIHQQDFVNWLLAQKGFVLWKGIQ (modifications not checked) [0601GIP4619], the % Inh at 10 nM turned out to be 84.6%.

The molecule LYAEGTFISDYSIAMDKIHQQDFVNWLLAQKPKKIRYS (modifications not checked) [0601GIP4798] came in with a % Inh at 10 nM of 82.3%.

As for IYAEGTFISDYSIAMDKIHQQDFVNWLLAQKPKKIRYS (modifications not checked) [0601GIP4801], the % Inh at 10 nM came out at 88.8%.

LYAEGTFISDYSIALDKIAQQEFVNWLLAQKPKKIRYS (modifications not checked) [0601GIP4803] displayed a % Inh at 10 nM of 89.9%.

The molecule LYAEGTFISDYSIALDKIAQQEFVNWLLAQKPKKIRYS (modifications not checked) [0601GIP4802] registered a % Inh at 10 nM of 87.3%.

Another test addresses T1, GIP receptor (GIP RBA, RIN), P43219. In words: cell-based or functional assay. The source holds these as a separate data set.
On to YAEGTFISEYSIAMDKIHQQDFVNWLLAQKPSSGAPPPS (modifications not checked) [0601GIP4151], for which the Cyclase is 10000.

Molecule YAEGTFISDYSIAMDKIHQQDFVNWLLAQAPSSGAPPPS (modifications not checked) [0601GIP4165] registered a Cyclase of 40.

Consider GYAEGTFISDYSIAMDKIHQQDFVNWLLAQKPSSGAPPPS (modifications not checked) [0601GIP4178], for which the Cyclase turned out to be 96.
